{
  "source": "paper PMC3511906",
  "about": "(Biochemistry, 2012)",
  "proteins": {"B1": {"name": "MIP-2/CXCL2 (murine macrophage inflammatory protein-2) (natural protein, UniProt P10889 28-100, looked up)", "chain": "AVVASELRCQCLKTLPRVDFKNIQSLSVTPPGPHCAQTEVIATLKGGQKVCLDPEAPLVQKIIQKILNKGKAN"}},
  "target": "the molecule itself",
  "assay": "crystal structure",
  "data": [
    {"protein": "B1", "values": [
      {"measurement": "stoichiometry N", "result": 2}
    ]}
  ]
}
